Source: paper PMC9481175

Molecular target: His-tagged pleckstrin homology (PH) domain of AKT (AKT-PHD) (Marsupenaeus japonicus)
Assay: ITC; CaM (70 uM) titrated into 10 uM AKT-PHD in the cell; 25°C; 0.1 M Tris-HCl pH 8.0; 19 injections; Auto-iTC200

## recombinant GST-tagged calmodulin (CaM) (natural protein)
  Kd: 726 nM
  dH: -80.1 kcal/mol
